Measured values as given in publication PMC12205653 (The Journal of Biological Chemistry, 2025).
Each block holds one molecule with its values, some of them ahead of it.

What was measured:
[1] = molecular target: endogenous CAPN2 (human (endogenous in MDA-MB-231)) (UniProt P17655)
[2] = molecular target: T1, His10-LgBiT-CAPNS1 (human, UniProt P04632 60-268); test: split reporter (BiFC, NanoBiT); fixed 100 nM LgBiT-CAPNS1, increasing SmBiT component, 5 mM Ca2+; estimated KD from the inflection of the plot assuming first-order kinetics; for CAPNS1 with CAPNS1: dimer to monomers; conditions: both partners purified
T1 construct: CAPNS1, calpain small regulatory subunit, human, penta-EF-hand domain PEF(S), residues 60-268; Cloned in pET16b; also called CAPNS1 PEF(S) biosensor component; source: E. coli BL21 RIPL; not shown: His10, N-terminal, kept; LgBiT, N-terminal, kept
T1 sequence (looked up): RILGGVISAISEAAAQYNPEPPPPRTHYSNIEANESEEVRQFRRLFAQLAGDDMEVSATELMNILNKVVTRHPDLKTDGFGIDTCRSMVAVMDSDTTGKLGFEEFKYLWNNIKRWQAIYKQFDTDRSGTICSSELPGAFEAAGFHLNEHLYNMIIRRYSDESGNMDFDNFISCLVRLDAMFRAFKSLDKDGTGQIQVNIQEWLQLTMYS

[3] = molecular target: T2, LgBiT-CAPNS1 (mammalian expression construct) (human, UniProt P04632 60-268); test: split reporter (BiFC, NanoBiT); LgBiT and SmBiT fusions coexpressed pairwise in transfected HEK293T cells; luciferase signal of cell lysates as fold change over a LgBiT-alone control; conditions: partners not purified
T2 construct: CAPNS1, human, PEF(S) domain, residues 60-268, in pBiT1.1-N (TK/LgBiT); source: HEK293T, transfected, in lysate; not shown: LgBiT, N-terminal, kept
T2 sequence (looked up): T1 sequence (looked up)

[4] = molecular target: T1, His10-LgBiT-CAPNS1; test: split reporter (BiFC, NanoBiT); fixed 100 nM LgBiT-CAPNS1, increasing SmBiT-CAPN1/2, 5 mM Mg2+ in place of Ca2+; estimated KD from the inflection of the plot assuming first-order kinetics; conditions: both partners purified
[5] = molecular target: T1, His10-LgBiT-CAPNS1; test: split reporter (BiFC, NanoBiT); crude bacterial lysates with approximately equimolar biosensor components; 5 mM Mg2+, no Ca2+; fold over His10-LgBiT-CAPNS1 alone; conditions: partners not purified

endogenous CAPN2 (human (endogenous in MDA-MB-231)), sequence (P17655 20-700): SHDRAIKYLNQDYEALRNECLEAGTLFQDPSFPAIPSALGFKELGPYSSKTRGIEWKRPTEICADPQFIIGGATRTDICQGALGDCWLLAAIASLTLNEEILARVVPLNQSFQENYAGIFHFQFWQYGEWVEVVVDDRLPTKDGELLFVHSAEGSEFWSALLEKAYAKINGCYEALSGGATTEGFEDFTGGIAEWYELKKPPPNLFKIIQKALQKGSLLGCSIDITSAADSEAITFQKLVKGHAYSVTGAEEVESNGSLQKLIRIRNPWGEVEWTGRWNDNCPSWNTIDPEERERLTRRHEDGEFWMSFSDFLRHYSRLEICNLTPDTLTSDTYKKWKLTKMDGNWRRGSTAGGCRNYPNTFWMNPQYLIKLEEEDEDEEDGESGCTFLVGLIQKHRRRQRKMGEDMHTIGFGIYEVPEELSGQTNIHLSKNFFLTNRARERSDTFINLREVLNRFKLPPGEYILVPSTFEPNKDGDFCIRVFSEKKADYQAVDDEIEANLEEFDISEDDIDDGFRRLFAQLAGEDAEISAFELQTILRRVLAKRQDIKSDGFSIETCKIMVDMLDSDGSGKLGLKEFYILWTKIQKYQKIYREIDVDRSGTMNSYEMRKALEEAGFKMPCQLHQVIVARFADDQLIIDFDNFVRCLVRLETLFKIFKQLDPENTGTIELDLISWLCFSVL

B1: His6-MBP-SmBiT-CAPNS1 (domain or fragment, human, UniProt P04632 60-268, looked up)
chain: T1 sequence (looked up)
notes: CAPNS1, calpain small regulatory subunit, human, penta-EF-hand domain PEF(S), residues 60-268; Same CAPNS1 stretch as m1 with other tags; m4 with m1 measures the PEF(S):PEF(S) homodimer of CAPNS1; not shown: His6, N-terminal, kept; MBP, N-terminal, kept; SmBiT, N-terminal, kept
Kd [2]: 635 nM

B3: His6-MBP-SmBiT-CAPN1 (domain or fragment, human, UniProt P07384 538-714, looked up)
chain: LSEEEIDENFKALFRQLAGEDMEISVKELRTILNRIISKHKDLRTKGFSLESCRSMVNLMDRDGNGKLGLVEFNILWNRIRNYLSIFRKFDLDKSGSMSAYEMRMAIESAGFKLNKKLYELIITRYSEPDLAVDFDNFVCCLVRLETMFRFFKTLDTDLDGVVTFDLFKWLQLTMFA
notes: CAPN1, calpain-1 catalytic subunit, human, penta-EF-hand domain PEF(L), residues 538-714; Cloned in pHT29 (modified pET16b); also called CAPN1 PEF(L) biosensor component; source: E. coli BL21 RIPL; not shown: His6, N-terminal, kept; MBP, N-terminal, kept; SmBiT, N-terminal, kept
Kd [4]: 362 nM
fold signal over LgBiT-CAPNS1 alone [5]: 47 fold
Kd [2]: 185 nM

Second part, the molecule after the results:

calpain-2 casein proteolytic activity (zymography of cell lysates), standardized to CAPN2 expression, against WT CAPNS1 [1]: 51 % of the WT
Molecule: recombinant CAPNS1 Q263R (pMSCV_CAPNS1) (from UniProt P04632 1-268) (natural protein)

fold increase of bioluminescence over LgBiT-CAPNS1 alone [3]: ~400 fold
B2: SmBiT-CAPN1 (mammalian expression construct) (domain or fragment, human, UniProt P07384 538-714, looked up)
chain: B3 chain
notes: CAPN1, human, PEF(L) domain, residues 538-714, in pBiT2.1-N (TK/SmBiT); source: HEK293T, transfected, in lysate; not shown: SmBiT, N-terminal, kept
